# PMC3273813 (Nucleic Acids Research, 2011)
# B1: PfAlba3 (Plasmodium falciparum Alba 3), His-tag fusion protein (natural protein, UniProt Q8IJX8 1-107, looked up)
# chain: MASTEEVSQERSENSIQVSMTKKPTFYARIGKRMFTGNEEKNPFDEVIITGLGNATKIAIGAASIMEKEDIGQIVKVQTAYFSSDRINRRIPKITIVLKKHPDFVAN
# Molecular target: T1, PfSir2A (Plasmodium falciparum Sir2), GST fusion (Plasmodium falciparum, UniProt Q8IE47 1-273)
# T1 sequence (looked up): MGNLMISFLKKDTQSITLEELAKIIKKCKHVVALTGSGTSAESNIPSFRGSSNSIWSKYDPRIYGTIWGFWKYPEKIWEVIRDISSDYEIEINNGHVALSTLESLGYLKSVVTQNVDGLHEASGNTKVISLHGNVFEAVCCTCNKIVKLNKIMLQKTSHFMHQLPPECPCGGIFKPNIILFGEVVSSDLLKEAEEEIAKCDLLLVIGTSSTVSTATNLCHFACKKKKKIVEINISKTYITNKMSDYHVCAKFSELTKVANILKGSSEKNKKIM
# Assay: pull-down
binder,measurement,value
B1,binding result,binds
